Test [1] concerns the target meHER2(Hc-Lc):28ζ CAR. As to the kind of experiment: flow cytometry, meditope-AF647 staining of lentivirally transduced primary human T cells; untransduced control 1.83%. Background: Flow cytometry measures light scatter and fluorescence of single cells or particles in a stream.
Test [2] concerns the target meHER2(Lc-Hc):28ζ CAR. The description is as above.
Test [3] deals with meHER2(Hc-Lc):28ζ CAR. Kind of test: flow cytometry, T cells pre-bound to meditope peptide, then protein L; untransduced control 0.50%.
meHER2(Hc-Lc):28ζ CAR, sequence (heavy, as listed by the source limits assumed, chain 1 of 2): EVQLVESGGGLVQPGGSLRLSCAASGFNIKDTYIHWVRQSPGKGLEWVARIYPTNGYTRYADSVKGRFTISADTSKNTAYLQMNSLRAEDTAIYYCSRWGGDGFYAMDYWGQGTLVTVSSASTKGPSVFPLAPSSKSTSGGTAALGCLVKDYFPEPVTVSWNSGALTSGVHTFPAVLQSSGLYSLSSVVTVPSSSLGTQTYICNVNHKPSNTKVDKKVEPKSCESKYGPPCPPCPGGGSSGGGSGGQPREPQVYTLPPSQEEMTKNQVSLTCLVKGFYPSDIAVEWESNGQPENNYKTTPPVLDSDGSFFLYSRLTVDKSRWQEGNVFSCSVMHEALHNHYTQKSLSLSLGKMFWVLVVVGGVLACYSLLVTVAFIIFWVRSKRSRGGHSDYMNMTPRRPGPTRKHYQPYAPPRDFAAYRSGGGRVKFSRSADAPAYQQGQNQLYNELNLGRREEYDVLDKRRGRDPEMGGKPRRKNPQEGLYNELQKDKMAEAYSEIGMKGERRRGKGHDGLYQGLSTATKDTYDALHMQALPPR
meHER2(Hc-Lc):28ζ CAR, sequence (light, as listed by the source limits assumed, chain 2 of 2): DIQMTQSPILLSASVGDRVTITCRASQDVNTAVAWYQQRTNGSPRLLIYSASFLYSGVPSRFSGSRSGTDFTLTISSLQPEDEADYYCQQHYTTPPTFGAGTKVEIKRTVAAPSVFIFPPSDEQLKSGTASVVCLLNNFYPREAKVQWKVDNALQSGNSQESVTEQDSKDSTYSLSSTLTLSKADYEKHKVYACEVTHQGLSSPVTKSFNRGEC
In test [4] the target is meHER2(Lc-Hc):28ζ CAR. Described as above.
meHER2(Lc-Hc):28ζ CAR, sequence (heavy, as listed by the source limits assumed, chain 1 of 2): as the sequence (heavy, as listed by the source limits assumed, chain 1 of 2) above
meHER2(Lc-Hc):28ζ CAR, sequence (light, as listed by the source limits assumed, chain 2 of 2): as the sequence (light, as listed by the source limits assumed, chain 2 of 2) above
For test [5], the target named is Fab (meditope-binding Fab, not further named). Kind of test: method not stated.
Test [6] addresses meHER2(Hc-Lc):28ζ CAR. Kind of test: flow cytometry, T cells pre-bound to meditope peptide, then protein L; untransduced control 0.63%.
In test [7] the target is meHER2(Lc-Hc):28ζ CAR. The description is as above.
Test [8] deals with meHER2(Hc-Lc):28ζ CAR. As to the kind of experiment: flow cytometry, T cells pre-bound to meditope peptide, then protein L; untransduced control 7.23%.
Test [9] addresses meHER2(Lc-Hc):28ζ CAR. The test is described as above.
Test [10] concerns the target meHER2(Hc-Lc):28ζ CAR. Kind of test: flow cytometry, protein L staining of lentivirally transduced primary human T cells; untransduced control 13.16%.

Take meditope-AF647 (peptide): the % of cells in the positive gate in the test with meHER2(Hc-Lc):28ζ CAR [1] amounted to 54.4%; with meHER2(Lc-Hc):28ζ CAR [2], 57.1%. The % of cells Meditope+ Protein L- (upper left quadrant) was 2.6% with meHER2(Hc-Lc):28ζ CAR [3] and 2.09% with meHER2(Lc-Hc):28ζ CAR [4].
As to meditope-protein L fusion (MPL), in test [5], the estimated half-life of the complex is more than 80 days.
For protein L, the % of cells Meditope+ Protein L+ (upper right quadrant) was found to be 42.1% with meHER2(Hc-Lc):28ζ CAR [6] and 43.1% with meHER2(Lc-Hc):28ζ CAR [7]. In addition, the % of cells Meditope- Protein L+ (lower right quadrant) with meHER2(Hc-Lc):28ζ CAR [8] came to 4.04%; with meHER2(Lc-Hc):28ζ CAR [9], 16.1%. For the same substance, the % of cells in the positive gate with meHER2(Hc-Lc):28ζ CAR [10] was found to be 51.8%.

The record behind these values is patent publication US20200277400A1.
